Data set [1] has as its system Dbh (WT) (Sulfolobus acidocaldarius). As to the kind of experiment: fluorescence titration (2AP). To be noted: 2-aminopurine at the primer terminus; 50 mM Tris acetate pH 7.5, 50 mM sodium acetate, 10 mM magnesium acetate, 5 mM DTT, 0.05% Tween 20, 25 °C; 100 nM 2AP-P/T, 0-1000 nM pol.
Data set [2] deals with Sdbh (Sso7d-Dbh fusion) (Sulfolobus acidocaldarius (Dbh); Sso7d source organism not stated). The data set is described as follows: fluorescence titration (2AP). As to conditions: 2-aminopurine at the primer terminus; 50 mM Tris acetate pH 7.5, 50 mM sodium acetate, 10 mM magnesium acetate, 5 mM DTT, 0.05% Tween 20, 25 °C; 100 nM 2AP-P/T, 0-1000 nM pol.
Data set [3] deals with SdbhA221S (Sulfolobus acidocaldarius (Dbh); Sso7d source organism not stated). The data set is described as follows: fluorescence titration (2AP). As to conditions: 10 mM Mg2+; 2-aminopurine at the primer terminus; 50 mM Tris acetate pH 7.5, 50 mM sodium acetate, 10 mM magnesium acetate, 5 mM DTT, 0.05% Tween 20, 25 °C; 100 nM 2AP-P/T, 0-1000 nM pol.
Data set [4] has as its system SdbhI62V (Sulfolobus acidocaldarius (Dbh); Sso7d source organism not stated). As to the kind of experiment: fluorescence titration (2AP). To be noted: 2-aminopurine at the primer terminus; 50 mM Tris acetate pH 7.5, 50 mM sodium acetate, 10 mM magnesium acetate, 5 mM DTT, 0.05% Tween 20, 25 °C; 100 nM 2AP-P/T, 0-1000 nM pol.
The test system of data set [5] is SdbhK337R (Sulfolobus acidocaldarius (Dbh); Sso7d source organism not stated). The data set is described as follows: fluorescence titration (2AP). As to conditions: 2-aminopurine at the primer terminus; 50 mM Tris acetate pH 7.5, 50 mM sodium acetate, 10 mM magnesium acetate, 5 mM DTT, 0.05% Tween 20, 25 °C; 100 nM 2AP-P/T, 0-1000 nM pol.
For data set [6], the system named is SdbhKSKIP241-245RVRKS (Sulfolobus acidocaldarius (Dbh); Sso7d source organism not stated). As to the kind of experiment: fluorescence titration (2AP). As to conditions: 2-aminopurine at the primer terminus; 50 mM Tris acetate pH 7.5, 50 mM sodium acetate, 10 mM magnesium acetate, 5 mM DTT, 0.05% Tween 20, 25 °C; 100 nM 2AP-P/T, 0-1000 nM pol.
Data set [7] has as its system SdbhL250V (Sulfolobus acidocaldarius (Dbh); Sso7d source organism not stated). As to the kind of experiment: fluorescence titration (2AP). As to conditions: 2-aminopurine at the primer terminus; 50 mM Tris acetate pH 7.5, 50 mM sodium acetate, 10 mM magnesium acetate, 5 mM DTT, 0.05% Tween 20, 25 °C; 100 nM 2AP-P/T, 0-1000 nM pol.
Data set [8] deals with SdbhM76I (Sulfolobus acidocaldarius (Dbh); Sso7d source organism not stated). The data set is described as follows: fluorescence titration (2AP). As to conditions: 2-aminopurine at the primer terminus; 50 mM Tris acetate pH 7.5, 50 mM sodium acetate, 10 mM magnesium acetate, 5 mM DTT, 0.05% Tween 20, 25 °C; 100 nM 2AP-P/T, 0-1000 nM pol.
Data set [9] relates to SdbhT37F (Sulfolobus acidocaldarius (Dbh); Sso7d source organism not stated). The data set is described as follows: fluorescence titration (2AP). As to conditions: 2-aminopurine at the primer terminus; 50 mM Tris acetate pH 7.5, 50 mM sodium acetate, 10 mM magnesium acetate, 5 mM DTT, 0.05% Tween 20, 25 °C; 100 nM 2AP-P/T, 0-1000 nM pol.
The test system of data set [10] is SdbhY249I (Sulfolobus acidocaldarius (Dbh); Sso7d source organism not stated). The data set is described as follows: fluorescence titration (2AP). To be noted: 2-aminopurine at the primer terminus; 50 mM Tris acetate pH 7.5, 50 mM sodium acetate, 10 mM magnesium acetate, 5 mM DTT, 0.05% Tween 20, 25 °C; 100 nM 2AP-P/T, 0-1000 nM pol.
Substrate in data set [11]: Nc1ccn([C@H]2C[C@H](O)[C@@H](COP(=O)(O)OP(=O)(O)OP(=O)(O)O)O2)c(=O)n1
As to the kind of experiment: steady-state single-nucleotide insertion, FAM-primer gel assay. To be noted: opposite template G (correct), 1.0 μM primer-template, 20 nM pol, 5 mM MgCl2, 100 mM KCl, pH 7.5, 37 °C, apparent Km. In kind it is biochemical, Sulfolobus acidocaldarius. An excerpt: (§1) steady-state single-nucleotide insertion, FAM-primer gel assay on Dbh (WTDbh)

Substrate in data set [12]: Nc1ncnc2c1ncn2[C@H]1C[C@H](O)[C@@H](COP(=O)(O)OP(=O)(O)OP(=O)(O)O)O1
The description is as above. It counts as biochemical, Sulfolobus acidocaldarius. As to conditions: opposite template G (incorrect, misinsertion), 1.0 μM primer-template, 20 nM pol, 5 mM MgCl2, 100 mM KCl, pH 7.5, 37 °C, apparent Km.
Source text: as §1

As usually defined, the Kd is a measure of binding affinity in units of concentration. Take 2AP-P/T primer-template: the equilibrium dissociation constant (Kd) in data set [1] came out at 54.8 nM; in [2] it was 51.2 nM; in data set [3], 47.5 nM; in data set [4] it was 49.8 nM; in data set [5] it was 55.5 nM; in [6] it was 34.8 nM. The Kd in [7] was determined as 50.4 nM; in data set [8], 42.8 nM; in [9], 49.7 nM; in data set [10], 56.2 nM.

B1: Dbh (WTDbh) (Sulfolobus acidocaldarius DSM 639) (protein)
chain: MIVIFVDFDYFFAQVEEVLNPQYKGKPLVVCVYSGRTKTSGAVATANYEARKLGVKAGMPIIKAMQIAPSAIYVPMRKPIYEAFSNRIMNLLNKHADKIEVASIDEAYLDVTNKVEGNFENGIELARKIKQEILEKEKITVTVGVAPNKILAKIIADKSKPNGLGVIRPTEVQDFLNELDIDEIPGIGSVLARRLNELGIQKLRDILSKNYNELEKITGKAKALYLLKLAQNKYSEPVENKSKIPHGRYLTLPYNTRDVKVILPYLKKAINEAYNKVNGIPMRITVIAIMEDLDILSKGKKFKHGISIDNAYKVAEDLLRELLVRDKRRNVRRIGVKLDNIIINKTNLSDFFDI
notes: synthetic gene, 6xHis tag (C-terminal by gene design, N-terminal by purification), expressed in E. coli BL21(DE3), Ni-NTA and Mono-S
A word on the Km: it is the substrate concentration at which the rate is half of its maximum. A word on the Vmax: it is the top rate of the reaction or transport when substrate is in excess. Consider B1, for which, in data set [11], the Michaelis constant (Km) came to 88.2 ± 12.0 µM and the maximum rate (Vmax) was 0.001 µM/min. Besides, in [12], the Michaelis-Menten constant (Km) came out at 215.2 ± 18.7 µM and the maximal velocity (Vmax) was 1.9e-05 µM/min.

The values above are taken from paper PMC5500549, “DNA binding strength increases the processivity and activity of a Y-Family DNA polymerase” (Scientific Reports, 2017).
